T1: Activin A (human, UniProt P08476 311-426)
T1 sequence: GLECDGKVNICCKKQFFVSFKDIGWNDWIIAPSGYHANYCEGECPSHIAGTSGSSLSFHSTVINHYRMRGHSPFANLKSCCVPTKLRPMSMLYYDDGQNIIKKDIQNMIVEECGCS

T2: Activin A (human, UniProt P08476 311-426)
T2 construct: Homodimer of two βA subunits; bought from R&D Systems (#338-AC); also called inhibin-βA dimer; human Activin A
T2 sequence: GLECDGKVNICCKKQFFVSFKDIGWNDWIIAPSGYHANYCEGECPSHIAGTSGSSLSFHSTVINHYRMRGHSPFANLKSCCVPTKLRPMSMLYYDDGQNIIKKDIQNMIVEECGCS

T3: Activin AC (human, UniProt P55103 237-352)
T3 construct: Heterodimer of one betaA and one betaC subunit; bought (R&D Systems #4879-AC)
T3 sequence 1: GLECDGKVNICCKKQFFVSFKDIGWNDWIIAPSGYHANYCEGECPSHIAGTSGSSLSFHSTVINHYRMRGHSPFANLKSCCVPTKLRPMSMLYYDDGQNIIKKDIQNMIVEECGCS
T3 sequence 2: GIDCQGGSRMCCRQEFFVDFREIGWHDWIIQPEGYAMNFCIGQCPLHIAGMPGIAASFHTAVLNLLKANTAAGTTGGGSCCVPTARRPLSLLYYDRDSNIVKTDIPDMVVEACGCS

T4: Activin AB (human, UniProt P08476 311-426; P09529 293-407)
T4 construct: Heterodimer of one betaA and one betaB subunit; bought (R&D Systems #1006-AB-005 / #1066-AB)
T4 chain 1: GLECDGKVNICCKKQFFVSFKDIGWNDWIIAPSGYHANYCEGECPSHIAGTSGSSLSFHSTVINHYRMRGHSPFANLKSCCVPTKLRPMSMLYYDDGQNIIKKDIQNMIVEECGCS
T4 chain 2: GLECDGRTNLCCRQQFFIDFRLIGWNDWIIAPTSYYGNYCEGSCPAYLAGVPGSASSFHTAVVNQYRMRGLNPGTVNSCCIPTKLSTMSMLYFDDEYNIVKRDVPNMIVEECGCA


How the values were obtained:
Activin A [1] = biological target: T1, Activin A; assay: cell-based or functional assay
Activin A [2] = biological target: T2, Activin A; assay: SPR, captured mAb, 25C
Description: (§1) Antibody-antigen association was monitored for 240 seconds while dissociation in buffer was monitored for 600 seconds. Kinetic association and dissociation rate constants were determined by processing and fitting the data using Scrubber software version 2.0c. Binding equilibrium dissociation constants (KD) and dissociative half-lives (t_{1/2}) were then calculated from the kinetic rate constants as: KD (M)=kd/kₐ and t_{1/2} (min)=[ln 2/(60*kd)]. (NB=no binding observed under the conditions used; NT=not tested).

Activin A [3] = biological target: T2, Activin A; assay: SPR, captured mAb, 37C
Description: as §1

Activin AC [4] = biological target: T3, Activin AC; assay: SPR (Biacore), mAb captured on anti-Fc, Activin AC injected, 25 C
Description: as §1

Activin AB [5] = biological target: T4, Activin AB; assay: SPR (Biacore), mAb captured on anti-Fc, Activin AB injected, 37 C
Description: as §1

Activin AC [6] = biological target: T3, Activin AC; assay: SPR (Biacore), mAb captured on anti-Fc, Activin AC injected, 37 C
Description: as §1

Activin AB [7] = biological target: T4, Activin AB; assay: SPR (Biacore), mAb captured on anti-Fc, Activin AB injected, 25 C
Description: as §1

Row | Binder | IC50 [M], inhibition of 100 pM Activin A in A204/CAGAx12-Luc Smad2/3-luciferase bioassay (Activin A [1]) [M] | Activin A-20 nM (RU) (Activin A [2]) | Kd (Activin A [2]) [nM] | koff (Activin A [2]) [s⁻¹] | kon (Activin A [2]) [M⁻¹ s⁻¹] | t1/2 (Activin A [2]) [min] | Activin A-20 nM (RU) (Activin A [3]) | Kd (Activin A [3]) [nM] | koff (Activin A [3]) [s⁻¹] | kon (Activin A [3]) [M⁻¹ s⁻¹] | t1/2 (Activin A [3]) [min] | also measured
1 | H2aM10965N (antibody, mouse IgG2a, V domains shown) VH: RVQLVQSGSEVKKPGASVKVSCRASGYIFTSYDINWVRQATGQGLEWMGWMNPNNGNTAYTQKFQGRVTMTRNTSISTAYMELSSLRSEDTAVYYCARKGLLWFGKLLGYGMDVWGQGTTVTVSS VL: not shown [H2aM10965N, listing 1 of 2 here] | 3.5e-09 | – | – | – | – | – | – | – | – | – | – | –
2 | H2aM10965N (antibody, mouse IgG2a, V domains shown) VH: RVQLVQSGSEVKKPGASVKVSCRASGYIFTSYDINWVRQATGQGLEWMGWMNPNNGNTAYTQKFQGRVTMTRNTSISTAYMELSSLRSEDTAVYYCARKGLLWFGKLLGYGMDVWGQGTTVTVSS VL: not shown [H2aM10965N, listing 2 of 2 here] | – | 76 | 0.745 | 0.0011 | 1.48e+06 | 10 | 80 | 1.77 | 0.00415 | 2.35e+06 | 3 | –
3 | H4H10433P2 (antibody, human IgG4, V domains shown) VH: EVQLVESGGGLVQAGRSLRLSCEASGFTFDDYGMHWVRQGPGKGLEWVSGISWNSGNIDYADSVKGRFTISRDNAKTSLYLQMNSLKTDDTALYFCAKDAVGFNWNYFLFDYWGQGTLVTVSS VL: not shown | – | 16 | 0.0406 | 0.000577 | 1.42e+07 | 20 | 12 | 0.0537 | 0.00107 | 2e+07 | 11 | –
4 | H4H10437P2 (antibody, human IgG4, V domains shown) VH: EVQLVESGGGLVQPGRSLRLSCAASGFTFDDYAMHWVRQAPGKGLEWVSGISWNSGSIGYADSVKGRFTISRDNAKNSLYLQMNSLRAEDTALYYCAKDIMGNWDYFYGMDVWGQGTTVTVSS VL: not shown [H4H10437P2, listing 1 of 2 here] | 2.9e-10 | – | – | – | – | – | – | – | – | – | – | –
5 | H4H10437P2 (antibody, human IgG4, V domains shown) VH: EVQLVESGGGLVQPGRSLRLSCAASGFTFDDYAMHWVRQAPGKGLEWVSGISWNSGSIGYADSVKGRFTISRDNAKNSLYLQMNSLRAEDTALYYCAKDIMGNWDYFYGMDVWGQGTTVTVSS VL: not shown [H4H10437P2, listing 2 of 2 here] | – | 30 | 0.134 | 0.00213 | 1.58e+07 | 5 | 20 | 0.229 | 0.00468 | 2.04e+07 | 2 | –
6 | H4H10424P (antibody, human IgG4, V domains shown) VH: QVQLVESGGGVVQPGRSLRLSCAASGFTFSSYGMHWVRQAPGKGLEWVAVIWYDGSNKYNADSVKGRFTISRDNSKNTVYLQMNSLRAEDTAVYYCARARNYDILTGYYNLGMDVWGQGTTVTVSS VL: DIQMTQSPSSLSASVGDRVTITCRASQGIRNDLGWYQQKPGKAPKRLIYAASSLQSGVPSRFSGSGSGTEFTLTISSLQPEDFATYYCLQHNSYPYTFGQGTKLEIK [H4H10424P, listing 1 of 2 here] | 7.6e-10 | – | – | – | – | – | – | – | – | – | – | –
7 | H4H10424P (antibody, human IgG4, V domains shown) VH: QVQLVESGGGVVQPGRSLRLSCAASGFTFSSYGMHWVRQAPGKGLEWVAVIWYDGSNKYNADSVKGRFTISRDNSKNTVYLQMNSLRAEDTAVYYCARARNYDILTGYYNLGMDVWGQGTTVTVSS VL: DIQMTQSPSSLSASVGDRVTITCRASQGIRNDLGWYQQKPGKAPKRLIYAASSLQSGVPSRFSGSGSGTEFTLTISSLQPEDFATYYCLQHNSYPYTFGQGTKLEIK [H4H10424P, listing 2 of 2 here] | – | 82 | 0.229 | 0.000719 | 3.14e+06 | 16 | 58 | 0.794 | 0.00364 | 4.59e+06 | 3 | –
8 | H4H10423P (antibody, human IgG4, V domains shown) VH: QVQLQQSGPGLLKPSQTLSLTCAISGDSVSSNSAAWSWIRQSPSRGLEWLGRTYYRANWFNDYALSVKSRITINPVTSTNHFSLQLHSVTPEDTAVYYCAREGALGYYFDSWGQGTLVTVSS VL: not shown | 2e-10 | – | – | – | – | – | – | – | – | – | – | 50 nM Ag Bound (RU) (Activin AC [4]): -0.8 RU; 50 nM Ag Bound (RU) (Activin AB [5]): 21.7 RU; Kd (Activin AB [5]): 24.2 nM; koff (Activin AB [5]): 0.0213 s⁻¹; kon (Activin AB [5]): 880000 M⁻¹ s⁻¹; t1/2 (Activin AB [5]): 0.5 min; 50 nM Ag Bound (RU) (Activin AC [6]): 0 RU; 50 nM Ag Bound (RU) (Activin AB [7]): 14.7 RU; Kd (Activin AB [7]): 33.1 nM; koff (Activin AB [7]): 0.0203 s⁻¹; kon (Activin AB [7]): 613000 M⁻¹ s⁻¹; t1/2 (Activin AB [7]): 0.6 min
9 | H4H10426P (antibody, human IgG4, V domains shown) VH: EVQLVESGGNLVQSGRSLRLSCTASGFAFDDFAMHWVRQVPGKGLEWVSGISWNSDTIGYADSVKGRFTISRDNAQNSLFLQMDSLRAEDTALYYCVKDMVRGLIGYYYYGMDVWGQGTTVTVSS VL: EIVLTQSPAILSLSPGERAILSCRASQSIYTYLSWYQQTPGRAPRLLIYETSSRATGIPARFIGSGSGTDFTLTISSLEPEDFAFYYCQHRSDWPPTFGQGTKLEIK [H4H10426P, listing 1 of 2 here] | 2.3e-10 | – | – | – | – | – | – | – | – | – | – | –
10 | H4H10426P (antibody, human IgG4, V domains shown) VH: EVQLVESGGNLVQSGRSLRLSCTASGFAFDDFAMHWVRQVPGKGLEWVSGISWNSDTIGYADSVKGRFTISRDNAQNSLFLQMDSLRAEDTALYYCVKDMVRGLIGYYYYGMDVWGQGTTVTVSS VL: EIVLTQSPAILSLSPGERAILSCRASQSIYTYLSWYQQTPGRAPRLLIYETSSRATGIPARFIGSGSGTDFTLTISSLEPEDFAFYYCQHRSDWPPTFGQGTKLEIK [H4H10426P, listing 2 of 2 here] | – | 23 | 0.0595 | 0.0007 | 1.18e+07 | 16 | 21 | 0.123 | 0.00198 | 1.61e+07 | 6 | –

The next lines start with results.

Row | IC50 [M], inhibition of 100 pM Activin A in A204/CAGAx12-Luc Smad2/3-luciferase bioassay (Activin A [1]) [M] | Activin A-20 nM (RU) (Activin A [2]) | Kd (Activin A [2]) [nM] | koff (Activin A [2]) [s⁻¹] | kon (Activin A [2]) [M⁻¹ s⁻¹] | t1/2 (Activin A [2]) [min] | Activin A-20 nM (RU) (Activin A [3]) | Kd (Activin A [3]) [nM] | koff (Activin A [3]) [s⁻¹] | kon (Activin A [3]) [M⁻¹ s⁻¹] | t1/2 (Activin A [3]) [min] | Binder | also measured
11 | 2.6e-10 | – | – | – | – | – | – | – | – | – | – | H4H10438P2 (antibody, human IgG4, V domains shown) VH: EVQLVESGGGLVQPGRSLRLSCAASGFTFDDNAMHWVRQPPGKGLEWVSGISWNSGSIGYADSVKGRFTISRDNAKNSLYLQMNSLRAEDTALYYCAKDINDILTGYPLFDYWGQGTLVTVSS VL: not shown [H4H10438P2, listing 1 of 2 here] | –
12 | – | 25 | 0.0492 | 0.000588 | 1.2e+07 | 20 | 18 | 0.127 | 0.00238 | 1.87e+07 | 5 | H4H10438P2 (antibody, human IgG4, V domains shown) VH: EVQLVESGGGLVQPGRSLRLSCAASGFTFDDNAMHWVRQPPGKGLEWVSGISWNSGSIGYADSVKGRFTISRDNAKNSLYLQMNSLRAEDTALYYCAKDINDILTGYPLFDYWGQGTLVTVSS VL: not shown [H4H10438P2, listing 2 of 2 here] | –
13 | 5.8e-11 | – | – | – | – | – | – | – | – | – | – | H4H10452P2 (antibody, human IgG4, V domains shown) VH: QVQLQESGPGLVKPSETLSLTCTVSGGSFSSHFWNWIRQSPGRGLEWIGYIYYSGGTNYNPSFKSRVTMSVDTSKNQFSLKLSSVTAADTAVFYCARARSGITFGGVLVPGSFDIWGQGTMVTVSS VL: not shown | –
14 | 4.6e-11 | – | – | – | – | – | – | – | – | – | – | H4H10448P2 (antibody, human IgG4, V domains shown) VH: QVQLQESGPGLVKPSETLSLTCTVSGGTFSSHFWSWIRQPPGKGLEWIGYIFYTGGTNHNPSLKSRVTISIDTSKNQFSLKLTSVTAADTAVYYCARARSGITFGGVIVPGSFDIWGQGTMVTVSS VL: not shown | –
15 | 5.3e-11 | – | – | – | – | – | – | – | – | – | – | H4H10445P2 (antibody, human IgG4, V domains shown) VH: QVQLQESGPGLVKPSETLSLICSVSGGSFSSHFWSWIRQPPGKGLEWIGYVLYSGGTNYNPSLKSRVTISVDTSKNQFFLKLSSVTAADTADYYCARAISGITFGGIIVPGSFDIWGQGTMVTVSS VL: not shown | –
16 | 7.8e-11 | – | – | – | – | – | – | – | – | – | – | H4H10447P2 (antibody, human IgG4, V domains shown) VH: QVQLQESGPGLVKPSETLSLTCSVSGGSFSSHFWSWIRQPPGKGLEWIGYIHYSGGTNYNPSLKSRVTISVDTSKNQFSLKLTSVTAADTADYYCARAISGITFGGMIVPGSFDVWGEGTMVTVSS VL: not shown | –

Reference: patent US20150037339A1 (Regeneron, published 2015)
